Among the data in CN112500478A are OD450nm values, retold here.

The assay has as its target 非洲猪瘟病毒(African swine fever Virus, ASFV)全病毒 / 灭活非洲猪瘟病毒抗原.

B1: 抗非洲猪瘟病毒的ScFv抗体VH-VLλ6 (scFv)
scFv: MEVKLVESGGGLVQPGGSLRLSCVGSGVTVTSYTVSWVRQAPGKGLEWLAGNGSSSKTTVDSDSVRGRFFISRDNSQNTAYLQMNSLRTEDTARYYCVQTIDSDCTSRLWGPGVEVVVGGGGSGGMSQTVIQEPAMSVSPGGTVTLTCAFSSATVTISNYPGWYQQTPRQPPRQLIYGLSSRPTGVPSRFSGAISGNKATLTITGAQAEDEADYFCALYNAGSRYNYMFGGGTHLTVL
In the case of B1, the OD450nm was found to be 1.15 OD450nm.
